Data on one molecule can be found in patent US20220119534A1 (DRAGONFLY THERAPEUTICS, published 2022).

Where a chain is given by its changes, count along the chain named.

The target in one experiment is T1, Human CD16a V158 (human, UniProt P08637 17-208, biotinylated).
T1 construct: Bought recombinant receptor; also called hCD16a (V158); hFcγRIIIa V158
The experiment in a line: SPR; sample after low pH hold. Background: In SPR one partner is held on a chip, and binding of the other changes the refractive index at the surface.

For a further experiment, the target named is T2, Human CLEC12A-His (human, UniProt Q5QGZ9 65-265).
T2 construct: Recombinant soluble protein made in house; also called hCLEC12A-His; hCLEC12A; not shown: His tag
T2 sequence: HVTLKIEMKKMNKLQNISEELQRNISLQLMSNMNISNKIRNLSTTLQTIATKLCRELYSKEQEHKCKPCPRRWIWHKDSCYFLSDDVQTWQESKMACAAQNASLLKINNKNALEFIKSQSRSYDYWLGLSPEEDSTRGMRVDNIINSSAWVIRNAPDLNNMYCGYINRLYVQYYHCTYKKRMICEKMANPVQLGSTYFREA
The experiment in a line: SPR; sample after low pH hold.

The target of experiment [1] is T3, mFc-hNKG2D (human, UniProt P26718 73-216).
T3 construct: extracellular domain; Recombinant mFc-tagged NKG2D dimer, made in house; also called human NKG2D; not shown: mouse Fc tag
T3 sequence (looked up): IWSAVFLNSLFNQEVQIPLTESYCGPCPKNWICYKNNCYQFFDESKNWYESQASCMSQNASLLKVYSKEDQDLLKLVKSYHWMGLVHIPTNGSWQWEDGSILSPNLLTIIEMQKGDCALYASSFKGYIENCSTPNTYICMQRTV
Description: SPR; sample after low pH hold.

For experiment [2], the target named is T3, mFc-hNKG2D. The experiment in a line: SPR, 37 C, mFc-hNKG2D captured, steady state fit; average.
Experiment [3] concerns the target T4, human CLEC12A on cells (HL60, PL21, Ba/F3-hCLEC12A) (human, UniProt Q5QGZ9 1-265).
T4 construct: Endogenous on the AML lines HL60 and PL21; brought into mouse Ba/F3 cells by retroviral transduction; The cell line stands under assay; also called CLL-1
T4 sequence: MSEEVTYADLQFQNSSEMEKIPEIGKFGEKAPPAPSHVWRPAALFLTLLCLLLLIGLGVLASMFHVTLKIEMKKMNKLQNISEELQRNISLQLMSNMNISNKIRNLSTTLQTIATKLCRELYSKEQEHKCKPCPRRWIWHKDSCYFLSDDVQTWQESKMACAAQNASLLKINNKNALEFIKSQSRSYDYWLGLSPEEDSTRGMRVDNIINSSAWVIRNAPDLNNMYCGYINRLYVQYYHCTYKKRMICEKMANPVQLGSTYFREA
Description: flow cytometry, PL21 cells. For orientation: Flow cytometry measures light scatter and fluorescence of single cells or particles in a stream.

Experiment [4] has as its target T4, human CLEC12A on cells (HL60, PL21, …). The experiment in a line: flow cytometry, 40 nM, MFI after 2 h 37 C relative to 2 h on ice, HL60 cells.
The target in the next experiment is T5, Human CD32a H131 (human, UniProt P12318 36-218, limits assumed, biotinylated).
T5 construct: Bought recombinant receptor; also called hFcγRIIa H131
T5 sequence (looked up): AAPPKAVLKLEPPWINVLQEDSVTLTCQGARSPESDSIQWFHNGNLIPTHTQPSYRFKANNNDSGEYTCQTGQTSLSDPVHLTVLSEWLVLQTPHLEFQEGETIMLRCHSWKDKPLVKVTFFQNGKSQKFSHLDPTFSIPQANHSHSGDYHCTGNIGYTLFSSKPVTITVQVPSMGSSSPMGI
Description: SPR, steady state fit; average for AB0192.

The target of a further experiment is T6, Human CD32a R131 (human, UniProt P12318 36-218, limits assumed, biotinylated).
T6 construct: Bought recombinant receptor; also called hFcγRIIa R131
T6 sequence (looked up): T5 sequence (looked up) with H132R
Description: SPR, steady state fit; average for AB0192.

T1 sequence (P08637 17-208 F176V limits assumed): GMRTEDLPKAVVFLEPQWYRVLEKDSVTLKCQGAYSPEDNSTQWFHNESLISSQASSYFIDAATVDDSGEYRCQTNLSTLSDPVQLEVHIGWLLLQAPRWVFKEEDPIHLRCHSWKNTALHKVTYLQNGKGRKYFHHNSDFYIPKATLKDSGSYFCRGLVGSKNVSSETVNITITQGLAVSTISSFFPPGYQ

B1: AB0192 TriNKET (other)
chain: EVQLVESGGGVVQPGGSLRLSCAASGFTFNAFGMHWVRQAPGKCLEWVAFISSGSTSIYYANTVKGRFTISRDNSKNTLYLQMNSLRAEDTAVYYCARDGYPTGGAMDYWGQGTSVTVSSGGGGSGGGGSGGGGSGGGGSDIQMTQSPSSLSASVGDRVTITCKASQDIYNYLSWFQQKPGKAPKPLIYRANILVSGVPSRFSGSGSGQDYTFTISSLQPEDIATYYCLQFDAFPFTFGCGTKLEIKGSDKTHTCPPCPAPELLGGPSVFLFPPKPKDTLMISRTPEVTCVVVDVSHEDPEVKFNWYVDGVEVHNAKTKPREEQYNSTYRVVSVLTVLHQDWLNGKEYKCKVSNKALPAPIEKTISKAKGQPREPRVYTLPPCRDELTKNQVSLTCLVKGFYPSDIAVEWESNGQPENNYKTTPPVLVSDGSFTLYSKLTVDKSRWQQGNVFSCSVMHEALHNHYTQKSLSLSPG
heavy: EVQLVESGGGLVKPGGSLRLSCAASGFTFSSYSMNWVRQAPGKGLEWVSSISSSSSYIYYADSVKGRFTISRDNAKNSLYLQMNSLRAEDTAVYYCARGAPIGAAAGWFDPWGQGTLVTVSSASTKGPSVFPLAPSSKSTSGGTAALGCLVKDYFPEPVTVSWNSGALTSGVHTFPAVLQSSGLYSLSSVVTVPSSSLGTQTYICNVNHKPSNTKVDKKVEPKSCDKTHTCPPCPAPELLGGPSVFLFPPKPKDTLMISRTPEVTCVVVDVSHEDPEVKFNWYVDGVEVHNAKTKPREEQYNSTYRVVSVLTVLHQDWLNGKEYKCKVSNKALPAPIEKTISKAKGQPREPQVCTLPPSRDELTENQVSLTCLVKGFYPSDIAVEWESNGQPENNYKTTPPVLDSDGSFFLYSWLTVDKSRWQQGNVFSCSVMHEALHNHYTQKSLSLSPG
light: DIQMTQSPSSVSASVGDRVTITCRASQGISSWLAWYQQKPGKAPKLLIYAASSLQSGVPSRFSGSGSGTDFTLTISSLQPEDFATYYCQQGVSFPRTFGGGTKVEIKRTVAAPSVFIFPPSDEQLKSGTASVVCLLNNFYPREAKVQWKVDNALQSGNSQESVTEQDSKDSTYSLSSTLTLSKADYEKHKVYACEVTHQGLSSPVTKSFNRGEC
notes: the condition stands under assay; also called AB0192 Lot AB0192-005
The term Kd denotes a measure of binding affinity in units of concentration. In general, koff refers to the first-order rate constant of dissociation. The kon is the second-order rate constant of association. As a reminder, the EC50 is the concentration giving half of the maximal effect. High values mean lower potency in that assay, low ones higher potency in that assay. For B1, the Kd was determined as 180 nM with Human CD16a V158; 1.66 nM with Human CLEC12A-His; 796 nM with mFc-hNKG2D [1]; 781 nM in the experiment with mFc-hNKG2D [2]; 1010 nM with Human CD32a H131; 1400 nM with Human CD32a R131. Besides, the koff was 0.0212 s⁻¹ with Human CD16a V158, 0.00115 s⁻¹ with Human CLEC12A-His and 0.142 s⁻¹ in the experiment with mFc-hNKG2D [1]. For the same molecule, the kon turned out to be 118000 M⁻¹ s⁻¹ with Human CD16a V158, 690000 M⁻¹ s⁻¹ in the experiment with Human CLEC12A-His and 178000 M⁻¹ s⁻¹ with mFc-hNKG2D [1]. This molecule also had an EC50 in experiment [3] of 0.43 nM. The molecule also had a percent surface retention in experiment [4] of 103%.
